The values that follow come from PMC9860392, “The N-terminal domain of human mitochondrial helicase Twinkle has DNA-binding activity crucial for supporting processive DNA synthesis by polymerase γ” (The Journal of Biological Chemistry, 2022).

Data set [1] deals with T1, FL Twinkle (mitochondrial helicase) (Homo sapiens, UniProt Q96RR1 43-684).
T1 sequence: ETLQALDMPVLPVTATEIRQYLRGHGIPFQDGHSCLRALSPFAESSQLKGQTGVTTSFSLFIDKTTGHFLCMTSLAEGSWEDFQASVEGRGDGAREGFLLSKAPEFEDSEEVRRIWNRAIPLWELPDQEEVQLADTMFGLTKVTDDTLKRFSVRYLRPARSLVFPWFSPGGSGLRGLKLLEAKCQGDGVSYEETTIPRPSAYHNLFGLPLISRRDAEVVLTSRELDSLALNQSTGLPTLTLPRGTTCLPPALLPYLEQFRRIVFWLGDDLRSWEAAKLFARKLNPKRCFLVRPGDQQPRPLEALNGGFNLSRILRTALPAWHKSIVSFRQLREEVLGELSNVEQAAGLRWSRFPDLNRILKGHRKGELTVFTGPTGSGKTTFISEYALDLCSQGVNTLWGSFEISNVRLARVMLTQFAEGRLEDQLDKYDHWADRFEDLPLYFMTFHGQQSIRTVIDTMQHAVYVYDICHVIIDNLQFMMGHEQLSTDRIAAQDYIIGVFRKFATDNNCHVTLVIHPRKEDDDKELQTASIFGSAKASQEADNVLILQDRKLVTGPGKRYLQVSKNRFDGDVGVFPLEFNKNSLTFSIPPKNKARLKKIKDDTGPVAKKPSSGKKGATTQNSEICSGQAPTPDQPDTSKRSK
Briefly: fluorescence anisotropy; no NaCl added; 50 mM Tris acetate pH 7.5, 10% glycerol, 0.05% Tween-20, 0.5 mM DTT, 0 or 50 mM NaCl; 2.5 nM DNA; no Mg2+ or nucleotide listed; temperature not stated. The conditions noted are these: protein: recombinant; tags: SUMO tag removed (ULP1); chain copies: 6; label: 3' fluorescein-T; single strand. Background: Polarisation of emitted light reports the rotation of a fluorescent probe.

The target of data set [2] is T2, Twinkle NTD (Homo sapiens, UniProt Q96RR1 43-372).
T2 sequence: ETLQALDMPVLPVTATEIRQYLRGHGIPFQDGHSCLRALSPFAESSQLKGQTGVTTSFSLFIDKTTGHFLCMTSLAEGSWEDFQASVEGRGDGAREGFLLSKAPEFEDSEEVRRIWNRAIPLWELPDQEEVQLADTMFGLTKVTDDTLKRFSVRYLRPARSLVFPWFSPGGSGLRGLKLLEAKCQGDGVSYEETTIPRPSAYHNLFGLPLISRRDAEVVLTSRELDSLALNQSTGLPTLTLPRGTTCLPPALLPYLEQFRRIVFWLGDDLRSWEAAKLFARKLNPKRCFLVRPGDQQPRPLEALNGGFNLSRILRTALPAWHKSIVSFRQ
The description is as above. As to conditions: protein: recombinant; tags: SUMO tag removed (ULP1); label: 3' fluorescein-T; single strand.

Data set [3] has as its target T3, Twinkle CTD (C-terminal domain plus linker) (Homo sapiens, UniProt Q96RR1 360-684).
T3 sequence: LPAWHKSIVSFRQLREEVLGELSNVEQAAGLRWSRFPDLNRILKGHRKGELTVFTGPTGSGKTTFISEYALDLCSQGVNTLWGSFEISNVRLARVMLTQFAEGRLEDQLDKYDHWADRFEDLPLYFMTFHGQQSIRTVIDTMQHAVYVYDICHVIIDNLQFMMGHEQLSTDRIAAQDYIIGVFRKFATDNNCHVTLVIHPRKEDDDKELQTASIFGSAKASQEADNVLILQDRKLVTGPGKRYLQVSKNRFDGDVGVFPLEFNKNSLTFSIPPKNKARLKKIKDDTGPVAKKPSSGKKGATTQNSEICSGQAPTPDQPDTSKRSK
Described as above. The conditions noted are these: protein: recombinant; tags: SUMO tag removed (ULP1); chain copies: 6; label: 3' fluorescein-T; single strand.

Data set [4] has as its target T1, FL Twinkle (mitochondrial helicase). The experiment in a line: fluorescence anisotropy; 50 mM NaCl; 50 mM Tris acetate pH 7.5, 10% glycerol, 0.05% Tween-20, 0.5 mM DTT, 0 or 50 mM NaCl; 2.5 nM DNA; no Mg2+ or nucleotide listed; temperature not stated. The conditions noted are these: protein: recombinant; tags: SUMO tag removed (ULP1); chain copies: 6; label: 3' fluorescein-T; single strand.

Data set [5] concerns the molecule itself. Briefly: SEC; Superdex 200 Increase 10/300 GL, 4 °C, 0.3 ml/min; 50 μl of 10 μM (monomer) CTD in 50 mM Tris-Cl pH 7.1, 5% glycerol, 600 mM NaCl; size from a calibration curve of protein standards. (In gel filtration, larger molecules generally elute earlier.)
Data set [6] concerns the molecule itself. The experiment in a line: SEC; Superdex 200 Increase 10/300 GL, 4 °C, 0.3 ml/min; 15 μl of 38.5 μM (monomer) FL Twinkle in 50 mM Tris-Cl pH 7.1, 5% glycerol, 300 mM NaCl, 1 mM TCEP; size from a calibration curve of protein standards.
In data set [7] the target is T2, Twinkle NTD. Briefly: fluorescence anisotropy; no NaCl added; weak phase of two-site fit; 50 mM Tris acetate pH 7.5, 10% glycerol, 0.05% Tween-20, 0.5 mM DTT, 0 or 50 mM NaCl; 2.5 nM DNA; no Mg2+ or nucleotide listed; temperature not stated. The conditions noted are these: protein: recombinant; tags: SUMO tag removed (ULP1); label: 3' fluorescein-T; single strand.
For data set [8], the target named is T2, Twinkle NTD. The experiment in a line: fluorescence anisotropy; no NaCl added; tight phase of two-site fit; 50 mM Tris acetate pH 7.5, 10% glycerol, 0.05% Tween-20, 0.5 mM DTT, 0 or 50 mM NaCl; 2.5 nM DNA; no Mg2+ or nucleotide listed; temperature not stated. As to conditions: protein: recombinant; tags: SUMO tag removed (ULP1); label: 3' fluorescein-T; single strand.

For data set [9], the target named is T3, Twinkle CTD (C-terminal domain plus …). The experiment in a line: fluorescence anisotropy; 50 mM NaCl; 50 mM Tris acetate pH 7.5, 10% glycerol, 0.05% Tween-20, 0.5 mM DTT, 0 or 50 mM NaCl; 2.5 nM DNA; no Mg2+ or nucleotide listed; temperature not stated. As to conditions: protein: recombinant; tags: SUMO tag removed (ULP1); chain copies: 6; label: 3' fluorescein-T; single strand.

Data set [10] addresses T1, FL Twinkle (mitochondrial helicase). Briefly: fluorescence anisotropy; 50 mM NaCl (error exceeds value); 50 mM Tris acetate pH 7.5, 10% glycerol, 0.05% Tween-20, 0.5 mM DTT, 0 or 50 mM NaCl; 2.5 nM DNA; no Mg2+ or nucleotide listed; temperature not stated. As to conditions: protein: recombinant; tags: SUMO tag removed (ULP1); chain copies: 6; label: 3' fluorescein-T; single strand.

Data set [11] concerns the target T2, Twinkle NTD. The experiment in a line: fluorescence anisotropy; no NaCl added; negligible binding; 50 mM Tris acetate pH 7.5, 10% glycerol, 0.05% Tween-20, 0.5 mM DTT, 0 or 50 mM NaCl; 2.5 nM DNA; no Mg2+ or nucleotide listed; temperature not stated. As to conditions: protein: recombinant; tags: SUMO tag removed (ULP1); label: 3' fluorescein-T; single strand.

B1: 12 nt ssDNA (ssDNA)
DNA: CTCTTGAACACT
Consider B1, for which the dissociation constant (Kd) – broadly, the free concentration of one partner at which half of the binding sites on the other are occupied at equilibrium, for simple one-to-one binding – stood at 5.2 ± 1 nM in data set [1], 141 ± 25 nM with Twinkle NTD [2], 21.7 ± 3 nM in [3] and 53 ± 17 nM in data set [4].

B2: Twinkle C-terminal domain plus linker (amino acids 360-684) (domain or fragment, human, UniProt Q96RR1 360-684, looked up)
chain: T3 sequence
notes: human mitochondrial helicase Twinkle, amino acids 360-684 (linker region and C-terminal domain; 36,650 Da); Cloned in the pET28 SUMO expression vector; SUMO cut with ULP1 SUMO-protease; the fusion was purified on Ni resin, so it probably carried a His tag that left with SUMO; also called CTD; Twinkle CTD; source: E. coli Rosetta 2 DE3 pLacI, purified (PEI, ammonium sulfate, Ni-NTA, heparin)
B2: the stoichiometry N (in general, the number of molecules, sites or subunits per partner or assembly) in data set [5] is ~12 subunit.

B3: full-length (FL) human Twinkle (amino acids 43-684) (enzyme, UniProt Q96RR1 43-684, looked up)
chain: T1 sequence
notes: human mitochondrial helicase Twinkle, amino acids 43-684; SUMO fusion cut with ULP1 SUMO-protease; the fusion was purified on Ni resin, so it probably carried a His tag that left with SUMO; also called FL Twinkle; TWNK; source: E. coli Rosetta 2 DE3 pLacI, purified (PEI, ammonium sulfate, Ni sepharose, Q sepharose, heparin)
In the case of B3, the “stoichiometry N” value in data set [6] was ~7 subunits.

B4: 16 nt ssDNA (ssDNA)
DNA: ATAACTCTTGAACACT
Turning to B4, the Kd in [1] is 2.8 ± 0.7 nM; with Twinkle NTD [2] it was 105 ± 24 nM; in [3] it was 5.2 ± 1.4 nM; in data set [4] it was 22.6 ± 5.1 nM.

B5: 30 nt ssDNA (ssDNA)
DNA: TGTGTTAGTTGGGGGGTGACTGTTAAAAGT
Consider B5, for which the dissociation constant Kd in data set [1] was 1.6 ± 0.3 nM; in data set [3], 1.7 ± 0.5 nM; with Twinkle NTD [7], 730 ± 450 nM; with Twinkle NTD [8], 17.5 ± 4 nM; in data set [4] it was 2.6 ± 0.5 nM; in data set [9], 4.5 ± 0.9 nM.

B6: 8 nt ssDNA (ssDNA)
DNA: TGAACACT
For the molecule B6, the Kd in data set [10] was 10 ± 12 nM; in [1] it was 9 ± 4.9 nM; in data set [3], 116 ± 41 nM. The binding result with Twinkle NTD [11] is on record as “no binding”.

B7: 20 nt ssDNA (ssDNA)
DNA: TGCTATAACTCTTGAACACT
Consider B7, for which the Kd in data set [1] came out at 1.9 ± 0.5 nM; in data set [3] it was 2.2 ± 0.7 nM; in the data set with Twinkle NTD [7], 1200 ± 640 nM; in the data set with Twinkle NTD [8], 18 ± 7 nM; in data set [4] it was 8.8 ± 1.3 nM; in [9], 50 ± 11 nM.

B8: 14 nt ssDNA (ssDNA)
DNA: AACTCTTGAACACT
As for B8, the Kd in [1] was 3.3 ± 0.7 nM; with Twinkle NTD [2], 121 ± 26 nM; in data set [3], 8.8 ± 1.5 nM; in [4], 39 ± 16 nM.
